B1: ParE30 metal binding TOPRIM domain of S. pneumoniae topo IV (domain or fragment, Streptococcus pneumoniae)
chain: MKNKKDKGLLSGKLTPAQSKNPAKNELYLVEGDSAGGSAKQGRDRKFQAILPLRGKVINTAKAKMADILKNEEINTMIYTIGAGVGADFSIEDANYDKIIIMTDADTDGAHIQTLLLTFFYRYMRPLVEAGHVYIALPPLYKMSKGKGKKEEVAYAWTDGELEELRKQFGKGATLQRYKGLGEMNADQLWETTMNPETRTLIRVTIEDLARAERRVNVLMGDKVEPRRKWIEDNVKFTLEEATVF
notes: residues 2-245 of the printed fusion; In the crystals this domain stood on one chain with ParC55, joined through one extra histidine, as the fusion protein m1; also called ParE TOPRIM domain; ParE domains; source: E. coli BL21(λDE3) pLysS, purified to >95% homogeneity (as part of the ParE30-ParC55 fusion protein)
B2: ParC55 breakage-reunion domain of S. pneumoniae topo IV (domain or fragment, Streptococcus pneumoniae)
chain: MSNIQNMSLEDIMGERFGRYSKYIIQDRALPDIRDGLKPVQRRILYSMNKDSNTFDKSYRKSAKSVGNIMGNFHPHGDSSIYDAMVRMSQNWKNREILVEMHGNNGSMDGDPPAAMRYTEARLSEIAGYLLQDIEKKTVPFAWNFDDTEKEPTVLPAAFPNLLVNGSTGISAGYATDIPPHNLAEVIDAAVYMIDHPTAKIDKLMEFLPGPDFPTGAIIQGRDEIKKAYETGKGRVVVRSKTEIEKLKGGKEQIVITEIPYEINKANLVKKIDDVRVNNKVAGIAEVRDESDRDGLRIAIELKKDANTELVLNYLFKYTDLQINYNFNMVAIDNFTPRQVGIVPILSSYIAHRREVILARSRFDKEKAEKRLHIVEGLIRVISILDEVIALIRASENKADAKENLKVSYDFTEEQAEAIVTLQLYRLTNTDVVVLQEEEAELREKIAMLAAIIGDERTMYNLMKKELREVKKKFATPRLSSLEDTAKALE
modifications: Y118 covalently linked to the 5′-phosphate of the cleaved DNA (phosphotyrosyl linkage)
notes: ParC55, the breakage-reunion domain of topoisomerase IV subunit ParC, S. pneumoniae; residues 247-734 of the printed fusion; In the crystals this domain stood on one chain with ParE30, joined through one extra histidine, as the fusion protein m1; also called ParC domains; ParC dimer; source: E. coli BL21(λDE3) pLysS, purified to >95% homogeneity (as part of the ParE30-ParC55 fusion protein)

In series [1] the target is B2. Nature of the series: crystal structure; ParE30-ParC55 fusion protein (4.5 mg/ml) mixed with 18-mer V-site or E-site duplex DNA at 1:1.2 molar ratio, 2 mM delafloxacin, 10 mM MgCl2; sitting-drop vapour diffusion, 50 mM sodium cacodylate, 62.5 mM KCl, 7.5 mM MgCl2, 2.5% Tacsimate, 5.5–7% isopropanol, pH 6.5, 301 K; V18 with PEGylated graphene nucleant 2.0 Å, V18 and E18 without 2.4 Å. Particulars: both partners purified.

Series [2] concerns the molecule itself. The series is described as above.

We go through two molecules from PMC12217528, “Structural basis of topoisomerase targeting by delafloxacin” (Nature Communications, 2025).

As for B1, the binding result in series [1] is reported as “binds”. B2: the binding result in series [2] is recorded as “binds”.
